Experimental data: patent publication US20210388081A1 (Memorial Sloan Kettering, published 2021)

Assays:
[1] = target: T1, FcRL4, overexpressed on 3T3 cells (UniProt Q96PJ5 20-515, limits assumed); experiment: phage clone on 3T3-FcRL4 cells
T1 construct: whole, on cells
T1 sequence (looked up): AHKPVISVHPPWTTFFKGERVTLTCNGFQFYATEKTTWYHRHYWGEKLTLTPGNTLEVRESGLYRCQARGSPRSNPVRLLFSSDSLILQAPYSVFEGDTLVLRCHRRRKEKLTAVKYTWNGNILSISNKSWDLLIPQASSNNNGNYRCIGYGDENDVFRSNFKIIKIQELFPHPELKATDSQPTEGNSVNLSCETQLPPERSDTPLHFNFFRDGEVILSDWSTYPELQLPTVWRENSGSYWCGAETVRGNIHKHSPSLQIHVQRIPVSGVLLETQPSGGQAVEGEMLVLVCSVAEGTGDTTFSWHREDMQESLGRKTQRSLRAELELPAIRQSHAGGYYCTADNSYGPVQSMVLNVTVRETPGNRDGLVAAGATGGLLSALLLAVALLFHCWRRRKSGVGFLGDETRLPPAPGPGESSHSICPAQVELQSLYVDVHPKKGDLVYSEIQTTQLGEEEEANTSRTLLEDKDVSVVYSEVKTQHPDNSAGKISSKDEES

[2] = target: T2, FcRL3, overexpressed on 3T3 cells (UniProt Q96P31 18-734, limits assumed); experiment: phage clone on 3T3-FcRL3 cells
T2 construct: whole, on cells
T2 sequence (looked up): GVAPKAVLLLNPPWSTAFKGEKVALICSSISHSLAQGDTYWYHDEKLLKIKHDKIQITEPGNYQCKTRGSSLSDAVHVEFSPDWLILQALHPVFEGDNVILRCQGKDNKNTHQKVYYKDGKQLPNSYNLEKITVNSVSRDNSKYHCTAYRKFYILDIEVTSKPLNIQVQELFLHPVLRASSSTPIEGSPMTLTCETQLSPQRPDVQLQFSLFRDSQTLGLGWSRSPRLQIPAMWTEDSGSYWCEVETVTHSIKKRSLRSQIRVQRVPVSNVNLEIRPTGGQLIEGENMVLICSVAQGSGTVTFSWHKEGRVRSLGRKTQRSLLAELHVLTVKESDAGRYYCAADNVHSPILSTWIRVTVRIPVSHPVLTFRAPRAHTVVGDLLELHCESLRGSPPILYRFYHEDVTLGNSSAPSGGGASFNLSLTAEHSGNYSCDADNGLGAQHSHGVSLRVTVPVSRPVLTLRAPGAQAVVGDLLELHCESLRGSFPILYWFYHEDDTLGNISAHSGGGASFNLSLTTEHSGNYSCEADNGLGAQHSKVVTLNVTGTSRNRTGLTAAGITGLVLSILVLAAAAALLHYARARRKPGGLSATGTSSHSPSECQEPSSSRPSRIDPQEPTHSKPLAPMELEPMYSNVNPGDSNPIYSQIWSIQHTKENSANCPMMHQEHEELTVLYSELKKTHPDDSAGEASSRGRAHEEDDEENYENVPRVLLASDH

B1: ET200-123 (scFv)
scFv: QAVLTQPPSASGTPGQRVTISCSGSSSNIGSNTVNWYQQLPGTAPKLLMYNNDQRPSGVPDRFSGSKSGTSASLAISGLQSEDEADYYCAAWDDSLNGYVFGPGTKVTVLGSRGGGGSGGGGSGGGGSLEMAQVQLVESGAEVKKPGASVKVSCKASGYTFTSYGISWVRQAPGQGLEWMGWISAYNGNTNYAQKLQGRVTMTTDTSTSTAYMELRSLRSDDTAVYYCARDLSRGANPHYYYYYGMDVWGQGTTVTVSSTSGQAGQHHHHHHGAYPYDVPDYAS
notes: screened as phage clone; entry is VL-linker-VH-His tag-HA tag
- binding result [1]: no binding
- binding result [2]: no binding

B2: ET200-125 (scFv)
scFv: NFMLTQPHAVSESPGKTVTISCTRSSGSIASNYVQWYQQRPGSSPRTVIYEDNQRPSGVPGRFSGSIDSSSNSASLTISGLKTEDEADYYCQSYDSTSVLFGGGTKLTVLGSRGGGGSGGGGSGGGGSLEMAEVQLVQSGAEVKKPGSSVKVSCKASGGTFSSNSLSWVRQAPGQGLEWMGRIFPILGITNYAQKFQGRVTITADKSTSTAYMELSSLRSEDTAVYYCARGNYQWYDAFDIWGQGTMVTVSSTSGQAGQHHHHHHGAYPYDVPDYAS
notes: as for B1
- binding result [1]: no binding
- binding result [2]: no binding

B3: ET200-005 (scFv)
scFv: QPVLTQPPSVSVVPGKTARITCGGKNIGSKSVHWYQQKPGQAPVVVIHYDSDRPSGIPERFSGSNSGNTATLTISRVEAGDEADYYCQVWDSSSDHPYVFGTGTKVTVLGSRGGGGSGGGGSGGGGSLEMAQVQLVQSGAEVKKPGASVKVSCKASGYTFTNYGISWVRQAPGQGLEWMGWISAYNGNTNYAHKLQGRVTMTTDTSTSTANMELRSLRPDDTAVYYCARSYFGSHDYWGQGTLVTVSSTSGQAGQHHHHHHGAYPYDVPDYAS
notes: as for B1
- binding result [1]: no binding
- binding result [2]: no binding

B4: ET200-124 (scFv)
scFv: SYVLTQPPSVSVAPGKTARISCGGNDIGSKSVFWYQQRPGQAPVLVVYDDSDRPSGLPERFSGFNSGNTATLTISRVEAGDEADYYCQVWDSSSDHYVFGTGTKVTVLGSRGGGGSGGGGSGGGGSLEMAQVQLVESGGGLVQPGRSLRLSCAASGFTFDDYAMHWVRQAPGKGLEWVSGISWNSGSIGYADSVKGRFTISRDNAKNSLYLQMNSLRAEDTALYYCAKDITYGSGSYGAFDIWGQGTMVTVSSTSGQAGQHHHHHHGAYPYDVPDYAS
notes: as for B1
- binding result [1]: no binding
- binding result [2]: no binding

B5: ET200-009 (scFv)
scFv: QSVLTQPPSASGTPGQTVTISCSGSNSNIGSNYVYWYQQLPGTAPKLLIYRNNQRPSGVPDRFSGSKSGTSASLAISGLRSEDEADYYCAAWDDSLSAYVFGTGTKVTVLGSRGGGGSGGGGSGGGGSLEMAQVQLVQSGAEVKKPGASVKVSCKASGYTFTSYGISWVRQAPGQGLEWMGWISAYNGNTNYAQKLQGRVTMTTDTSTSTAYMELRSLRSDDTAVYYCARSSGNMVSWKDMWGQGTLVTVSSTSGQAGQHHHHHHGAYPYDVPDYAS
notes: as for B1
- binding result [1]: no binding
- binding result [2]: no binding

B6: ET200-010 (scFv)
scFv: QSALTQPASVSGSPGQSITISCTGTSSDVGGYNSVSWYQQHPGKAPRLMIYDVSNRPSGVSNRFSGSKSGNTASLTISGLQAEDEADYYCSSYTSSSTPLVFGTGTKVTVLGSRGGGGSGGGGSGGGGSLEMAQVQLVQSGAEVKKPGASVKVSCKASGYTFTSYGISWVRQAPGQGLEWMGWISAYNGNTNYAQKLQGRVTMTTDTSTSTAYMELRSLRSDDTAVYYCARGAVAYHDWGQGTLVTVSSTSGQAGQHHHHHHGAYPYDVPDYAS
notes: as for B1
- binding result [1]: no binding
- binding result [2]: no binding
